Test results reported in PMC3743062 (Scientific Reports, 2013).

Biological target: Calmodulin (CaM), wild type (UniProt P0DP23 1-149)
Assay: crystal structure

binding result: binds
B1: NaV1.6 IQ motif (1893-1914), the part of the fusion CaM-(Gly)5-NaV1.6 IQ (domain or fragment)
chain: EEVSAVVLQRAYRGHLARRGFI
